From patent publication US9623039B2, “Treatment and prevention of pathological conditions using iduna related techniques and compositions” (VALTED, LLC, priority 2010, dated 2017)

What was measured:
[1] = test system: primary cortical neurons; assay: NMDA excitotoxicity cell death in primary cortical neurons; assay type: cell-based, mouse; details: NMDA 100 μM for 5 min, Iduna overexpression
Procedure: Primary Neuronal Culture Preparation: Primary cortical cell cultures were prepared from gestational day 15 mouse embryos as previously described. Experiments were performed at DIV (day in vitro) 14. Under these conditions, neurons represent 90% of the cells in the culture. Mature neurons were washed with control salt solution (CSS) containing 120 mM NaCl, 5.4 mM KCl, 1.8 mM CaCl2, 25 mM Tris-HCl pH 7.4 and 15 mM D-glucose. To induce NMDA-mediated […], 50 μM NMDA and 10 μM glycine in CSS solution was applied to the cells for 5 min, then the cells were washed and re-supplemented with minimum essential medium containing 10% horse serum. […]
Cell Death Assessment: Following exposure of neuronal cultures to the various treatments neuronal survival was quantified and presented as percent of cell death. Percent cell death was determined as the ratio of live-to-dead cells compared with the percent cell death in control wells to account for cell death attributable to mechanical stimulation of the cultures. Quantification of neuronal survival was determined by staining treated cultures with 5 μM Hoechst 33342 and 2 μM propidium iodide (PI) (Invitrogen, Carlsbad, Calif.). […] The numbers of total and dead (PI positive) cells were counted by automated computer assisted software (Axiovision 4.6, Zeiss, Germany). […]

[2] = test system: cytochrome c; assay: Cytochrome c release after NMDA excitotoxicity; assay type: cell-based, mouse; details: NMDA 500 μM for 5 min, 4 hrs
Procedure: FIG. 53—Immunoblot showing release of CYT C. Mouse cortical neurons over-expressing GFP, GFP-Iduna or GFP-Iduna-YRAA were subjected to NMDA-excitotoxicity (500 μM for 5 min) on DIV 14. Following subcellular fractionation into mitochondrial and cytosolic (post-mitochondrial) fractions, CYT C release was monitored 4 hrs following NMDA stimulation. COX IV was used as a marker for mitochondria and GAPDH was used a marker for cytosol. Data were repeated three times with similar results.
FIG. 54—Quantification of cytochrome c release from mitochondria following NMDA-toxicity. […] Values of optical density were quantified using Image J software and the data were normalized to the values of GAPDH in the cytosol.

[3] = test system: PAR polymer; assay: EMSA for PAR binding
Source text: PAR binding is specified by a sequence of approximately 20 amino acids containing N-terminal basic amino acids and a C-terminal region containing alternating hydrophobic and basic amino acids (FIG. 24). Iduna contains a predicted PAR polymer binding sequence within amino acids 144-167 of the WWE domain (FIGS. 1 and 24). The PAR-binding domain was defined by comparing to the consensus sequence for PAR-binding and the known PAR binding domain of Histone 3 (FIG. 24). HEK293 cells were transfected with GFP, GFP-Iduna lacking the WWE domain (GFP-IdunaΔWWE), GFP-Iduna lacking the RF domain (GFP-IdunaARF), and full-length GFP-Iduna, followed by immunoprecipitation with a GFP antibody. […] Only GFP-Iduna-ARF and full-length GFP-Iduna can co-immunoprecipiate PAR binding proteins (FIG. 25). The critical amino acids in the PAR binding domain, 156Y and 157R, were mutated to 156A and 157A in full length Iduna (Iduna-YRAA). […] Similar results are obtained with a biotin-tagged PAR polymer followed by detection with an anti-biotin antibody (FIG. 26). […] Histone H3 is a known PAR binding protein and was used as a positive control for the PAR overlay assay. […] An assay based on electrophorectic mobility shift (EMSA) for PAR binding was developed to monitor PAR polymer binding to Iduna. […]

B1: Iduna: novel NMDA-induced cell survival protein, PAR-dependent E3 ligase; 359 amino acids (protein)
chain: MEMAGCGEIDHSINMLPTNKKANESCSNTAPSLTVPECAICLQTCVHPVSLPCKHVFCYLCVKGASWLGKRCALCRQEIPEDFLDKPTLLSPEELKAASRGNGEYAWYYEGRNGWWQYDERTSRELEDAFSKGKKNTEMLIAGFLYVADLENMVQYRRNEHGRRRKIKRDIIDIPKKGVAGLRLDCDTNTVNLARESSADGADSGSAQTGASVQLAVPSSTRPLTSVDGQLTSPVTPSPDAGISLEDSFAHLQLSGDSIAERSHRGEGEEDHESPSSGRVPDTSVEETESDASSDSEDAPVVVAQHSLTQQRPLVPNGNQTVADQSDRSGTDRSVAGGGTMSVNVRSRRPDGQCTVIEV
[1]
  cell death %: 23.0±1.8%
[2]
  cytochrome c translocation from mitochondria to the cytoplasm: reduction of cytochrome c translocation from mitochondria to the cytoplasm
[3]
  PAR polymer mobility shift: retards the mobility shift of PAR polymer
